# Measured values: patent CN116284371A (SUZHOU FANGKE BIOTECHNOLOGY CO LTD; SUZHOU INST OF SYSTEMS …, dated 2023)
# T1: 重组蛋白MDA5 (MDA5抗原蛋白) (Homo sapiens (Human), UniProt Q9BYX4 1-1025)
# T1 construct: Recombinant MDA5 from a synthetic gene in pFastBac1 (EcoRI/XbaI); also called MDA5蛋白
# T1 sequence: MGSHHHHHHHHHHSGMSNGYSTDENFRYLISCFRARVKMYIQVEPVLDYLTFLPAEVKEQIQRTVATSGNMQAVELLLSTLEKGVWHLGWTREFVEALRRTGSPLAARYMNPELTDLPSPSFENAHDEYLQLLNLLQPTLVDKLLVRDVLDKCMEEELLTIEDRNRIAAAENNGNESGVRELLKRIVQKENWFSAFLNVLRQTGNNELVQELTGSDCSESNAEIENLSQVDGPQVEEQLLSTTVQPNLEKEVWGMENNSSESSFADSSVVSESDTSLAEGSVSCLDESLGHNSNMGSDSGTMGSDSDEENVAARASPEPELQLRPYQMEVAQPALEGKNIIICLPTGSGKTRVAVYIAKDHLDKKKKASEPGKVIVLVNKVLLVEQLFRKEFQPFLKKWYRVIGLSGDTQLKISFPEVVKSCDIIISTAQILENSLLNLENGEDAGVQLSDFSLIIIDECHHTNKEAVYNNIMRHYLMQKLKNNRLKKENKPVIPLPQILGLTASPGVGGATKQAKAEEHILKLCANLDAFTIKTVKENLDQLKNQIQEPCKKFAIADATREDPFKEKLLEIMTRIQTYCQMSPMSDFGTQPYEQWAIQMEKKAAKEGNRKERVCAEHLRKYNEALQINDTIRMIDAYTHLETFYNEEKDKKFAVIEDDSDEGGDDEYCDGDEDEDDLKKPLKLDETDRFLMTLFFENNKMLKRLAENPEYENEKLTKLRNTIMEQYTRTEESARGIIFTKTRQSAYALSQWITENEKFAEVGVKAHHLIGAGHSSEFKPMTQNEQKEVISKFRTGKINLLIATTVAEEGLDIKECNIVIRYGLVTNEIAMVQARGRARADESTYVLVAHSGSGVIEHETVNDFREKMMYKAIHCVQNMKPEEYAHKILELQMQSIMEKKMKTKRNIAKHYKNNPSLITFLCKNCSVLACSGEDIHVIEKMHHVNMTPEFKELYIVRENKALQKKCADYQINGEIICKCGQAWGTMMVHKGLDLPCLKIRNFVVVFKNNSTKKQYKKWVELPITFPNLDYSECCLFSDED
# Target: T1, 重组蛋白MDA5 (MDA5抗原蛋白)
# Experiment: ELISA, MDA5 coated 4 ug/mL, antibody dilution series, anti-human IgG-HRP
binder,measurement,value
"76F-MDA5-R2P1-G5抗体 (antibody, human IgG1, kappa, V domains shown, The printed heavy and light chain entries appear to start with a leader peptide) VH: QVQLVESGGGVVQPGRSLRLSCAASGFTFSSYAMHWVRQAPGKGLEWVAVISYDGSNKYYADSVKGRFTISRDNSKNTLYLQMNSLRAEDTAVYYCARHRRYAFDIWGQGTTVTVSS VL: QAVLTQPASVSGSPGQSITISCTGTSSDVGGYNYVSWYQQHPGKAPKLMIYDVSKRPSGVSNRFSGSKSGNTASLTISGLQAEDEADYYCSSYVVSYTWVFGGGTKVTVLR",binding result,binds
